Here are results for 1 molecule from US6468532 (dated 2002).

The target in this test is recombinant human IL-8, (ser-IL-8)72 (human, UniProt P10145 28-99). Kind of test: competition radioimmunoassay (unlabeled IL-8/125I-IL-8).

B1: full length 6G4V11N35A IgG1 (antibody, V domains shown)
VH: EVQLVQSGGGLVQPGGSLRLSCAASGYSFSSHYMHWVRQAPGKGLEWVGYIDPSNGETTYNQKFKGRFTLSRDNSKNTAYLQMNSLRAEDTAVYYCARGDYRYNGDWFFDVWGQGTLVTVSS
VL: DIQMTQSPSSLSASVGDRVTITCRSSQSLVHGIGATYLHWYQQKPGKAPKLLIYKVSNRFSGVPSRFSGSGSGTDFTLTISSLQPEDFATYYCSQSTHVPLTFGQGTKVEIKR
As usually defined, the IC50 is the concentration at which inhibition is half-maximal. Consider B1, for which the IC50 came out at 0.059 nM.
